B1: Hereditary hemochromatosis protein (Homo sapiens), Q30201 (parent)
chain: MGPRARPALLLLMLLQTAVLQGRLLRSHSLHYLFMGASEQDLGLSLFEALGYVDDQLFVFYDHESRRVEPRTPWVSSRISSQMWLQLSQSLKGWDHMFTVDFWTIMENHNHSKESHTLQVILGCEMQEDNSTEGYWKYGYDGQDHLEFCPDTLDWRAAEPRAWPTKLEWERHKIRARQNRAYLERDCPAQLQQLLELGRGVLDQQVPPLVKVTHHVTSSVTTLRCRALNYYPQNITMKWLKDKQPMDAKEFEPKDVLPNGDGTYQGWITLAVPPGEEQRYTCQVEHPGLDQPLIVIWEPSPSGTLVIGVISGIAVFVVILFIGILFIILRKRQGSRGAMGHYVLAERE

Variants of: B1
Details: with b2mg_human B2M

Row | effect of a mutation on the interaction | Variant
1 | disrupting interaction | Q283P

Variants of: B1
Details: with tfr1_human TFRC

Row | effect of a mutation on the interaction | Variant
2 | disrupting interaction | Q283P

From IntAct's records for PubMed 15965644
